One block for each binder: values may come before it.
Tests used:
Assay in all cases: two-hybrid library CCmax;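 further: natural log of median RNA to DNA barcode read ratio; higher means stronger binding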
4H1802-AA = biological target: T1, 4H1802-AA; conditions: mean of both orientations
T1 chain: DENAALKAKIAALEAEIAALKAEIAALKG

4H3651-AA = biological target: T2, 4H3651-AA; conditions: mean of both orientations
T2 chain: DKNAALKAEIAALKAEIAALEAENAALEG

GCN2_T = biological target: GCN2_T
4H_GCN4 = biological target: 4H_GCN4
4H140-AA = biological target: T3, 4H140-AA; conditions: mean of both orientations
T3 chain: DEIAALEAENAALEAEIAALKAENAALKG

4H3020-AA = biological target: T4, 4H3020-AA; conditions: mean of both orientations
T4 chain: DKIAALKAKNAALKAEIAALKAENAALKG

4H465-AA = biological target: T5, 4H465-AA; conditions: mean of both orientations
T5 chain: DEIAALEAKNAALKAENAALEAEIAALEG

4H2600-AA = biological target: T6, 4H2600-AA; conditions: mean of both orientations
T6 chain: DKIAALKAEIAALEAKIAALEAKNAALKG

4H_BCR = biological target: T7, 4H_BCR; conditions: mean of both orientations
T7 chain: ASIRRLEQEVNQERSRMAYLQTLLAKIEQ

4H2750-AA = biological target: T8, 4H2750-AA
T8 chain: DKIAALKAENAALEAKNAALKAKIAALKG

4H58-AA = biological target: T9, 4H58-AA; conditions: mean of both orientations
T9 chain: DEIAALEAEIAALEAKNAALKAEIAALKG

4H_APH = biological target: T10, 4H_APH; conditions: mean of both orientations
T10 chain: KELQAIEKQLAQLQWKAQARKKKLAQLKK

4H486-AA = biological target: T11, 4H486-AA; conditions: mean of both orientations
T11 chain: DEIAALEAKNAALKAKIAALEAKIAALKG

4H355-AA = biological target: T12, 4H355-AA; conditions: mean of both orientations
T12 chain: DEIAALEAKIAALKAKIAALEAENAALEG

4H1136-AA = biological target: T13, 4H1136-AA
T13 chain: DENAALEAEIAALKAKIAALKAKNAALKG

4H1257-AA = biological target: T14, 4H1257-AA; conditions: mean of both orientations
T14 chain: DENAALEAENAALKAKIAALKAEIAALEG

4H2721-AA = biological target: T15, 4H2721-AA; conditions: mean of both orientations
T15 chain: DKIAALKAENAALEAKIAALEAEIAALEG

4H895-AA = biological target: T16, 4H895-AA; conditions: mean of both orientations
T16 chain: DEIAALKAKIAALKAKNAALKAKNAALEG

4H3365-AA = biological target: T17, 4H3365-AA; conditions: mean of both orientations
T17 chain: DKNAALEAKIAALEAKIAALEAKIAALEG

4H3782-AA = biological target: T18, 4H3782-AA; conditions: mean of both orientations
T18 chain: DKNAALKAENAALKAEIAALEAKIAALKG

4H3705-AA = biological target: T19, 4H3705-AA; conditions: mean of both orientations
T19 chain: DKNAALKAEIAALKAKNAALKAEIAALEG

4H2898-AA = biological target: T20, 4H2898-AA; conditions: mean of both orientations
T20 chain: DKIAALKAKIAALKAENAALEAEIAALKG

4H535-AA = biological target: T21, 4H535-AA; conditions: mean of both orientations
T21 chain: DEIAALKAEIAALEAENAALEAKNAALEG

P2-AA-1HGe-M = biological target: T22, P2-AA-1HGe-M; conditions: mean of both orientations
T22 chain: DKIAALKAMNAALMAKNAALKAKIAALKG

P2-AA-1HGe-Q = biological target: T23, P2-AA-1HGe-Q; conditions: mean of both orientations
T23 chain: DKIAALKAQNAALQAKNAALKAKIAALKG

P2-AA-1HGe-R = biological target: T24, P2-AA-1HGe-R; conditions: mean of both orientations
T24 chain: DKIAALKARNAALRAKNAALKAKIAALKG

P2-AA-1HGe-D = biological target: T25, P2-AA-1HGe-D; conditions: mean of both orientations
T25 chain: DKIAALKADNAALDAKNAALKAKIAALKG

P2-AA = biological target: T26, P2-AA; conditions: mean of both orientations
T26 chain: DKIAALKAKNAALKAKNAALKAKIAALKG

P2-AA-1HGe-A = biological target: T27, P2-AA-1HGe-A; conditions: mean of both orientations
T27 chain: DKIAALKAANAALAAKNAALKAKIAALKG

P2-AA-1HGe-T = biological target: T28, P2-AA-1HGe-T; conditions: mean of both orientations
T28 chain: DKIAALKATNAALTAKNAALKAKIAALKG

4H_GCN4, sequence (chain, as listed by the source): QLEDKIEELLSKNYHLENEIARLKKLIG

interaction score (4H1802-AA): -1.42
interaction score (4H3651-AA): 2.2
interaction score (GCN2_T): -1.68
interaction score (4H_GCN4): -1.83
interaction score (4H140-AA): -1.41
interaction score (4H3020-AA): -1.2
interaction score (4H465-AA): -1.44
interaction score (4H2600-AA): 0.398
interaction score (4H_BCR): -1.73
interaction score (4H2750-AA): -1.46
interaction score (4H58-AA): -0.193
interaction score (4H_APH): -1.64
interaction score (4H486-AA): -0.319
interaction score (4H355-AA): 0.718
interaction score (4H1136-AA): -0.12
interaction score (4H1257-AA): 0.673
interaction score (4H2721-AA): -1.15
interaction score (4H895-AA): -1.31
interaction score (4H3365-AA): -1.36
interaction score (4H3782-AA): -0.406
interaction score (4H3705-AA): -1.5
interaction score (4H2898-AA): -0.29
interaction score (4H535-AA): 1.79
B1: 4H1136-AA (peptide)
chain: DENAALEAEIAALKAKIAALKAKNAALKG

interaction score (P2-AA-1HGe-M): 2.21
interaction score (P2-AA-1HGe-Q): 1.87
interaction score (P2-AA-1HGe-R): 1.34
interaction score (P2-AA-1HGe-D): 1.27
interaction score (P2-AA): 1.7
interaction score (P2-AA-1HGe-A): 1.9
interaction score (P2-AA-1HGe-T): 2.15
B2: P1-AA-1HGe-W (peptide)
chain: DEIAALEAWNAALWAENAALEAEIAALEG

interaction score (P2-AA-1HGe-M): 1.67
interaction score (P2-AA-1HGe-Q): 1.96
interaction score (P2-AA-1HGe-R): 2.01
interaction score (P2-AA-1HGe-D): 1.57
interaction score (P2-AA): 1.87
interaction score (P2-AA-1HGe-A): 1.65
interaction score (P2-AA-1HGe-T): 2.08
B3: P1-AA-1HGe-Y (peptide)
chain: DEIAALEAYNAALYAENAALEAEIAALEG
